Test results reported in patent publication US20190161551A1 (Regeneron, published 2019).
Blank lines part the entries; values can stand above or below the binder they belong to.

Experiments:
[1] = molecular target: T1, mouse TrkB extracellular domain expressed with a C-terminal myc-myc-hexahistidine tag (mouse, UniProt P15209 32-429); assay: SPR, mAb captured (anti-hFc), 25C
T1 construct: also called mTrkB.mmH; mTRKB.mmH
Method: (§1) Equilibrium dissociation constants (KD values) for TrkB binding to purified anti-TrkB monoclonal antibodies were determined using a real-time surface plasmon resonance biosensor using a Biacore 4000 instrument. All binding studies were performed in 10 mM Hepes pH 7.4, 150 mM NaCl, 3 mM EDTA, and 0.05% v/v Surfactant Tween-20 (HBS-ET running buffer) at 25° C. and 37° C. […] Binding studies were performed on following TrkB reagents; human TrkB extracellular domain expressed with a C-terminal myc-myc-hexahistidine tag (hTRKB.mmH; SEQ ID NO: 76; Accession number NP_001018074.1), mouse TrkB extracellular domain expressed with a C-terminal myc-myc-hexahistidine tag (mTRKB.mmH; SEQ ID NO: 79; Accession number NP_001020245), rat TrkB extracellular domain expressed with a C-terminal myc-myc-hexahistidine tag (rTRKB.mmH; SEQ ID NO: 84; Accession number NP_036863.1), and human TrkB extracellular domain expressed with a C-terminal mouse IgG2a Fc tag (hTrkB-mFc; SEQ ID NO: 77; Accession number NP_001018074.1). […] Kinetic association (kₐ) and dissociation (kd) rate constants were determined by fitting the real-time binding sensorgrams to a 1:1 binding model with mass transport limitation using Scrubber 2.0c curve-fitting software. Binding dissociation equilibrium constants (KD) and dissociative half-lives (t½) were calculated from the kinetic rate constants as: […]

[2] = molecular target: T2, rat TrkB extracellular domain expressed with a C-terminal myc-myc-hexahistidine tag (rat, UniProt Q63604 32-429); assay: SPR, mAb captured (anti-hFc), 25C
T2 construct: also called rTrkB.mmH; rTRKB.mmH
T2 sequence (Q63604 other isoform, or with tags, fused parts or gaps): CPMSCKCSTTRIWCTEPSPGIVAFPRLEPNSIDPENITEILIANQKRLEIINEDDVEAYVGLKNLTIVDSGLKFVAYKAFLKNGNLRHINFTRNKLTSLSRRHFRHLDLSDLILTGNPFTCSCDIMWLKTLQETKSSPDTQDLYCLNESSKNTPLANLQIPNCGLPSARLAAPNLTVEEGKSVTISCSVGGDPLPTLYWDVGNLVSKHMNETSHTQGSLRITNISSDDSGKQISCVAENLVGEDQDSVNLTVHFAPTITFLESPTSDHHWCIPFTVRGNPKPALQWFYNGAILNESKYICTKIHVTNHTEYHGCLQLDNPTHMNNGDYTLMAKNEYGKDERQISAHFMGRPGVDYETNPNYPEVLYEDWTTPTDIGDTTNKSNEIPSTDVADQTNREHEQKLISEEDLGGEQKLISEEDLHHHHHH
Method: as §1

[3] = molecular target: T3, human TrkB extracellular domain expressed with a C-terminal myc-myc-hexahistidine tag (human, UniProt Q16620 32-430); assay: SPR, mAb captured (anti-hFc), 25C
T3 construct: also called hTrkB.mmH; hTRKB.mmH
T3 sequence (Q16620 other isoform, or with tags, fused parts or gaps): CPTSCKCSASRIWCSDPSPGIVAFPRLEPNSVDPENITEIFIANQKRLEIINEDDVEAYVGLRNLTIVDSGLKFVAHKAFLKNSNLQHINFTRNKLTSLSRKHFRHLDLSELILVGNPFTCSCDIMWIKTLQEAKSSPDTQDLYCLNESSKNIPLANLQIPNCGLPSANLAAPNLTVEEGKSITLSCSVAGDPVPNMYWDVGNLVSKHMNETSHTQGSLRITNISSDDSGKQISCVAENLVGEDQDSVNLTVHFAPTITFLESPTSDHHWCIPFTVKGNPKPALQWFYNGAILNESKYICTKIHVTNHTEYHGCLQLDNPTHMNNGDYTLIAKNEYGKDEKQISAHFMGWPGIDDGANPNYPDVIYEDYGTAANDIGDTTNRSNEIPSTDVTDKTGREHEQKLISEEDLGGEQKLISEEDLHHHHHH
Method: as §1

[4] = molecular target: T4, human TrkB extracellular domain expressed with a C-terminal mouse IgG2a Fc tag (human); assay: SPR, mAb captured (anti-hFc), 25C
T4 construct: also called hTrkB-mFc; hTrkB.mFc
T4 sequence (chain, as listed by the source limits assumed): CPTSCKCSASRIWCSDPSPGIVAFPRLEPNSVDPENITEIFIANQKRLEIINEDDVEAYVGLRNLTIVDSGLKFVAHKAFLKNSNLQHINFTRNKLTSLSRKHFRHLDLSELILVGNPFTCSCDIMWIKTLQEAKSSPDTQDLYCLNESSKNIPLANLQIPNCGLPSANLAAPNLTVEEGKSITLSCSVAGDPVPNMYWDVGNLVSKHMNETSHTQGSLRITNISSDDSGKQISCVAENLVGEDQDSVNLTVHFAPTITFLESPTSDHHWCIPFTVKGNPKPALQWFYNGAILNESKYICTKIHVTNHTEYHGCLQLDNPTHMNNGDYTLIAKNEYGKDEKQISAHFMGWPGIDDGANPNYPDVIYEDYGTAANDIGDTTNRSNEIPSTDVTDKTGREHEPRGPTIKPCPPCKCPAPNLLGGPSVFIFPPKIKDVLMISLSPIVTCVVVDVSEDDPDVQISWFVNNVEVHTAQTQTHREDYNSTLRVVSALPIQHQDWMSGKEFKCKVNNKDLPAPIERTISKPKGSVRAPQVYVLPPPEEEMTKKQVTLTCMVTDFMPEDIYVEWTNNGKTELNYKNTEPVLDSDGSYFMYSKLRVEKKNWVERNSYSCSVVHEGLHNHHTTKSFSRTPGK
Method: as §1

[5] = molecular target: T4, human TrkB extracellular domain …; assay: BLI Octet, captured hTrkB.mFc, 300 nM mAb (BDNF run)
Method: (§2) Blocking of anti-human TrkB or anti-mouse TrkB antibodies from binding to TrkB by BDNF or NT-4 was evaluated using a real-time bio-layer interferometry (BLI) based Octet HTX instrument. The entire study was performed in 10 mM HEPES pH 7.4, 300 mM NaCl, 3 mM EDTA, 1 mg/mL BSA, 0.02% NaN3 and 0.05% v/v Surfactant Tween-20 (HBS-EBT running buffer) at 25° C. All the samples were dispensed in a 384 tilted well plate and the plate was placed on the orbital shaker with the shake speed of 1000 rpm. hTrkB.mFc was captured on anti-mFc (AMC) Octet sensors while hTrkB.hFc or mTrkB.hFc were captured on anti-hFc (AHC) Octet sensors by dipping in wells containing 10 μg/mL of TrkB reagents for 2 minutes. hTrkB.mFc or hTrkB.hFc captured Octet biosensors were saturated by dipping in wells containing 20 nM of BDNF, hNT-4, or mNT-4 for 2 minutes followed by dipping Octet biosensors in wells containing 300 nM of different TrkB mAbs for 4 minutes. Binding of TrkB mAbs to the complex of TrkB and BDNF, hNT-4, or mNT-4 was determined using Scrubber 2.0c analysis software.

[6] = molecular target: T4, human TrkB extracellular domain …; assay: BLI Octet, captured hTrkB.mFc saturated with BDNF, 300 nM mAb
Method: as §2

mouse TrkB.hFc = molecular target: T5, mouse TrkB.hFc (mouse); assay: BLI Octet, captured mTrkB.hFc, 300 nM mAb, no ligand
T5 construct: also called mTrkB.hFc; mTrkB-hFc
T5 sequence (chain, as listed by the source limits assumed): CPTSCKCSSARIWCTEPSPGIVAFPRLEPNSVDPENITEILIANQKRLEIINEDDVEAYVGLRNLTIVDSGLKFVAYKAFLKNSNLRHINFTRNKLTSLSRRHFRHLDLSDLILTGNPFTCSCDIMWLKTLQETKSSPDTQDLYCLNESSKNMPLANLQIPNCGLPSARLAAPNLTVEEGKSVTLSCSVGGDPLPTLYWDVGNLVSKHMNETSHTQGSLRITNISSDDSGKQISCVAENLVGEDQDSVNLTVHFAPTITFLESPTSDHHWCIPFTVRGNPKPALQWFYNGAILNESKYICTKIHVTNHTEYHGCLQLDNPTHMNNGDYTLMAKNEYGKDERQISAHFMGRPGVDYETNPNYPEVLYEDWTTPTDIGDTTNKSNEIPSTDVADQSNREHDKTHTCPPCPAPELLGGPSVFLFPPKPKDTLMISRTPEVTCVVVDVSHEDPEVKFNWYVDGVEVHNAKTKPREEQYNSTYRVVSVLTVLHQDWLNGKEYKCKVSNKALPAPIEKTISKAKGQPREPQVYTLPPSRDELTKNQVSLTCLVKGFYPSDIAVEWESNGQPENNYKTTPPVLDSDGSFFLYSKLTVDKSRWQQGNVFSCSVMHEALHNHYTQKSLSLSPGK
Method: as §2

[7] = molecular target: T2, rat TrkB extracellular domain expressed …; assay: blocking ELISA, rat TrkB.mmh pre-mixed with mAb, plate-coated BDNF
Method: Experiments were carried out using the following procedure. Human BDNF was coated at a concentration of 0.5 μg/mL (for blocking mouse TrkB.hFc interaction) or 0.3 μg/mL (for blocking rat TrkB.mmh interaction) in PBS on 96-well microtiter plate and incubated overnight at 4° C. […] In a 96-well dilution plate, 850 pM mouse TrkB.hFc or rat TrkB.mmh was mixed with the three-fold serially diluted anti-mouse TrkB antibodies and control antibody. The final antibody concentrations ranged from 1.69 pM to 100 nM. The protein-antibody mix was incubated at room temperature (RT) for 1 hour. The pre-bound mix was then transferred in duplicates to microtiter plates coated with BDNF. A control containing assay buffer alone was included to calculate the baseline of the assay. The ELISA plates were incubated at RT for 1 hour and then washed with plate washing solution. Plate-bound mouse TrkB.hFc was detected with HRP-conjugated goat anti-human Fcγ fragment specific antibody (Jackson Immunoresearch) and rat TrkB.mmh was detected with HRP-conjugated anti-histidine antibody (Qiagen). The plates were incubated with detection antibody for 1 hour at RT and then washed with plate washing solution. The assay plates were developed with TMB colorimetric substrates according to the manufacturer's recommended procedure.
The absorbance at 450 nm for each well was recorded and plotted as a function of the concentration of antibody. Data was analyzed in GraphPad Prism software using a four-parameter logistic equation over an 11-point dose response curve and IC₅₀ values were calculated. […] Percent blockade at maximum concentration of the antibody tested was calculated as an indicator of the ability of the antibodies to block the binding of TrkB to BDNF on the plate relative to the baseline of the assay. Binding signal of 850 pM mouse or rat TrkB in absence of the antibody was defined as 100% binding or 0% blocking. The baseline signal of assay buffer alone was defined as 0% binding or 100% blocking.

T1 sequence (P15209 other isoform, or with tags, fused parts or gaps): as the sequence (Q63604 other isoform, or with tags, fused parts or gaps) above, with M3T, T9S, T10A, I32V, K63R, G84S, T153M, I185L, T394S counted along it

B2: H1M8037C (antibody, mouse IgG1, kappa, V domains shown)
VH: QVQLVQSGAEVKKPGASVKVSCKASGYTFTNYDIIWVRQAPGQGLEWMGYINPYNDGTKYNEKFKGRVTMTRDTSTSTVYMELSSLRSEDTAVYYCARLLKYRRFRYYAIDYWGQGTTVTVSS
VL: DIQMTQSPSSLSASVGDRVTITCRTSENVYSNLAWYQQKPGKAPKLLIYAASNLQSGVPSRFSGSGSGTDYTFTISSLQPEDIATYYCQHFWGSPFTFGQGTKLEIKR
notes: captured by anti-mFc in SPR; also called Comparator; comparator anti-TrkB monoclonal antibody
antibody Binding (nm) (mouse TrkB.hFc): 0.42 nm
% Blockade with 100 nM antibody [7]: 83.3%
IC50 [7]: 1.42 nM

B4: M2aM14179N (antibody, mouse IgG2a, kappa, V domains shown)
VH: EVQLQQSGPELVKPGASVKISCKASGYTLTDYYMNWVKQSHGKSLEWIGDINPNNGGTSYNQKFKGKATLTVDKSSSTAYMELRSLTSEDSAVYYCARGAYYSNYFDYWGQGTTLTVSS
VL: DIVMSQSPSSLAVSAGEKVTMSCKSSQSLLNSRTRKNYLAWYQQKPGQSPKLLIYWASTRESGVPDRFTGSGSGTDFTLTISSVQAEDLAVYYCKQSYILFTFGSGTQLEIKR
notes: Anti-mouse TrkB antibody from hybridoma, mouse IgG2a Fc; also called surrogate anti-mouse TrkB antibody
antibody Binding (nm) (mouse TrkB.hFc): 0.42 nm
% Blockade with 100 nM antibody [7]: -38.1%

B6: M2aM14173N (antibody, mouse IgG2a, kappa, V domains shown)
VH: NVSLVESGGGSVKPGGSLQLSCAASGFTFSSSAMSWIRQTPEMRLEWVATISDRGSYTYYPDSVEGRFTISRDNAKNILYLQMSHLMSEDTAMYYCARGKGEKAYYTAFFAYWGQGSLVTVSA
VL: DIQMTQSPASLSASVGETVTITCRASENIYSYLAWYQQKPGKSPHLLVHNAETLAEGVPSRFSGSGSGPQFSLKINSLQPGDSGTYYCQHHYSSPWTFGGGTKLEIKR
notes: as for B4
antibody Binding (nm) (mouse TrkB.hFc): 0.42 nm
% Blockade with 100 nM antibody [7]: 80.7%
IC50 [7]: 3.81 nM

Further lines, results first:

100 nM mTrkB.mmH Bound (RU) [1]: -1 RU
100 nM rTrkB.mmH Bound (RU) [2]: -1 RU
100 nM hTrkB.mmH Bound (RU) [3]: 20 RU
Kd [3]: 21.7 nM
koff [3]: 0.000867 s⁻¹
kon [3]: 40000 M⁻¹ s⁻¹
t½ [3]: 13 min
100 nM hTrkB-mFc Bound (RU) [4]: 14 RU
Kd [4]: 4.48 nM
koff [4]: 0.000168 s⁻¹
kon [4]: 37400 M⁻¹ s⁻¹
t½ [4]: 69 min
mAb Binding (nm) [5]: 0.18 nm
antibody Binding (nm) [6]: 0.2 nm
B1: H4H9780P (antibody, human IgG4 S228P, kappa, V domains shown)
VH: QVQLVESGGGVVQPGRSLRLSCAASGFSFSSFGMHWVRQAPGKGLEWVSVISYDGINTYYTDSVKGRFTISRDNSKNTLYLQMNGLRAEDTALYYCVQGSIGTVFEYWGQGTLVTVSS
VL: DIQMTQSPSSLSASVGDRVTITCRASQGISNYLAWYQQKPGKVPKLLIYAASTLQSGVPSRFGGSGSGTDFTLTISSLQPEDVATYYCQKYTSAPFTFGPGTKVDIKR
notes: Fully human anti-human TrkB agonist antibody, human IgG4 Fc; also called H4H9780P-L1

100 nM mTrkB.mmH Bound (RU) [1]: 0 RU
binding result [1]: no binding (tested: 100 nM)
100 nM rTrkB.mmH Bound (RU) [2]: 0 RU
100 nM hTrkB.mmH Bound (RU) [3]: 30 RU
Kd [3]: 13.8 nM
koff [3]: 0.000845 s⁻¹
kon [3]: 61400 M⁻¹ s⁻¹
t½ [3]: 14 min
100 nM hTrkB-mFc Bound (RU) [4]: 25 RU
Kd [4]: 1.22 nM
koff [4]: 7.98e-05 s⁻¹
kon [4]: 65200 M⁻¹ s⁻¹
t½ [4]: 145 min
mAb Binding (nm) [5]: 0.19 nm
antibody Binding (nm) [6]: 0.26 nm
B3: H4H9816P2 (antibody, human IgG4 S228P, kappa, V domains shown)
VH: EVQLVESGGGLVQPGGSLTLSCAASGFNFRDYEMIWVRQTPGKGLEWISYISNSGYTIYYADSVKGRFTISRDNARNSIYLQVNSLRAEDTAVYYCSRRTTMIRGIRAYYYYGLDVWGQGTTVTVSS
VL: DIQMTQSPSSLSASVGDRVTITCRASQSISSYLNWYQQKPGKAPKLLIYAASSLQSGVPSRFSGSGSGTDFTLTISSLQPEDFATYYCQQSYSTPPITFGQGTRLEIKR
notes: Fully human anti-human TrkB agonist antibody, human IgG4 Fc; also called H4H9816P-L1

100 nM mTrkB.mmH Bound (RU) [1]: -2 RU
100 nM rTrkB.mmH Bound (RU) [2]: -1 RU
100 nM hTrkB.mmH Bound (RU) [3]: 63 RU
Kd [3]: 0.545 nM
koff [3]: 0.000686 s⁻¹
kon [3]: 1.26e+06 M⁻¹ s⁻¹
t½ [3]: 17 min
100 nM hTrkB-mFc Bound (RU) [4]: 69 RU
Kd [4]: 0.0311 nM
koff [4]: 5.95e-05 s⁻¹
kon [4]: 1.91e+06 M⁻¹ s⁻¹
t½ [4]: 194 min
mAb Binding (nm) [5]: 0.18 nm
antibody Binding (nm) [6]: 0.22 nm
B5: H4H9814P (antibody, human IgG4 S228P, kappa, V domains shown)
VH: EVQLVESGGGLVQPGGSLKLSCTASGFTFSGSVIHWVRQASGKGLEWIGRIRNKANSYATAYGASVTGRFTISRDDSKNTAYLQMNSLKTEDTAVYYCTFPGVVGRGGFDYWGQGTLVTVSS
VL: DIVMTQSPDSLAVSLGEGATINCMSSQSVLFSSNNKNYLAWYQQKPGQPPKLLFYWASTRESGVPDRFGGSGSGTDFSLTINSLQTEDVAVYYCLQYYSIPWTFGQGTKVEIKR
notes: Fully human anti-human TrkB agonist antibody, human IgG4 Fc; also called H4H9814P-L1
